Measurements reported in article PMC4388618.

Substrate: [H][C@@]12COP(=O)(O)O[C@@]1([H])[C@@H](O)[C@H](n1cnc3c(=O)[nH]c(N)nc31)O2
Assay: cyclic nucleotide phosphodiesterase assay kit
Type: biochemical, Drosophila melanogaster

B1: Prune (Pn) (Drosophila melanogaster) (protein)
chain: MCFLRFLAQARGTLGRHLAEASPVAWAAAPDVSGRKLHLVMGNESCDLDSAVSAVTLAFVYAQRHREHDYVPILNIPRRDYPLKTEVGHLFVKCGIAEPVLLFRDDIPREVVQDVNVILVDHHVSPLAPNVTEILDHRPLEDSSPSFKQLPTLCQLDIDASVGSCATLVAQRYLAEDQPRSTSVAQLLHATIVLDTINFAPAAKRYGPKDEAMVQKLESELNRKDAQRSSLFDELVAARADISKLTLTEVLRKDMKVLQTDRQVVPLAGMPILVRDFVEKSGAEKAVREFGVESNLLVILGMYVSPADGQVQRDLALISLSGQGQFVQRVQQALMESNDPKLELRPHEVDTRFMGGCFLRQHNVQATRKHILPIVKRALLEWEADHACDCDEVYFFKEKPQLGLS
  Km: 17.97 ± 10.78 µM
  kcat: 0.00123 ± 0.00014 s⁻¹
